Data: article PMC10972748 (2024)

Target: SPSB3–ELOBC heterotrimeric complex (SPSB3 amino acids 83–326 with elongin B and elongin C) (human | , UniProt Q6PJ21 83-326; Q15370 1-118; Q15369 1-112)
Assay: BLI

Kd [nM] | Binder
453 | His-Halo-tagged cGAS single point mutant of Glu515 (natural protein) MQPWHGKAMQRASEAGATAPKASARNARGAPMDPTESPAAPEAALPKAGKFGPARKSGSRQKKSAPDTQERPPVRATGARAKKAPQRAQDTQPSDATSAPGAEGLEPPAAREPALSRAGSCRQRGARCSTKPRPPPGPWDVPSPGLPVSAPILVRRDAAPGASKLRAVLEKLKLSRDDISTAAGMVKGVVDHLLLRLKCDSAFRGVGLLNTGSYYEHVKISAPNEFDVMFKLEVPRIQLEEYSNTRAYYFVKFKRNPKENPLSQFLEGEILSASKMLSKFRKIIKEEINDIKDTDVIMKRKRGGSPAVTLLISEKISVDITLALESKSSWPASTQEGLRIQNWLSAKVRKQLRLKPFYLVPKHAKEGNGFQEETWRLSFSHIEKEILNNHGKSKTCCENKEEKCCRKDCLKLMKYLLEQLKERFKDKKHLDKFSSYHVKTAFFHVCTQNPQDSQWDRKDLGLCFDNCVTYFLQCLRTEKLENYFIPEFNLFSSNLIDKRSKEFLTKQIEYERNNAFPVFDEF
957 | His-Halo-tagged cGAS single point mutant of Arg512 (natural protein) MQPWHGKAMQRASEAGATAPKASARNARGAPMDPTESPAAPEAALPKAGKFGPARKSGSRQKKSAPDTQERPPVRATGARAKKAPQRAQDTQPSDATSAPGAEGLEPPAAREPALSRAGSCRQRGARCSTKPRPPPGPWDVPSPGLPVSAPILVRRDAAPGASKLRAVLEKLKLSRDDISTAAGMVKGVVDHLLLRLKCDSAFRGVGLLNTGSYYEHVKISAPNEFDVMFKLEVPRIQLEEYSNTRAYYFVKFKRNPKENPLSQFLEGEILSASKMLSKFRKIIKEEINDIKDTDVIMKRKRGGSPAVTLLISEKISVDITLALESKSSWPASTQEGLRIQNWLSAKVRKQLRLKPFYLVPKHAKEGNGFQEETWRLSFSHIEKEILNNHGKSKTCCENKEEKCCRKDCLKLMKYLLEQLKERFKDKKHLDKFSSYHVKTAFFHVCTQNPQDSQWDRKDLGLCFDNCVTYFLQCLRTEKLENYFIPEFNLFSSNLIDKRSKEFLTKQIEYEANNEFPVFDEF
818 | His-Halo-tagged cGAS single point mutant of Asp465 (natural protein) MQPWHGKAMQRASEAGATAPKASARNARGAPMDPTESPAAPEAALPKAGKFGPARKSGSRQKKSAPDTQERPPVRATGARAKKAPQRAQDTQPSDATSAPGAEGLEPPAAREPALSRAGSCRQRGARCSTKPRPPPGPWDVPSPGLPVSAPILVRRDAAPGASKLRAVLEKLKLSRDDISTAAGMVKGVVDHLLLRLKCDSAFRGVGLLNTGSYYEHVKISAPNEFDVMFKLEVPRIQLEEYSNTRAYYFVKFKRNPKENPLSQFLEGEILSASKMLSKFRKIIKEEINDIKDTDVIMKRKRGGSPAVTLLISEKISVDITLALESKSSWPASTQEGLRIQNWLSAKVRKQLRLKPFYLVPKHAKEGNGFQEETWRLSFSHIEKEILNNHGKSKTCCENKEEKCCRKDCLKLMKYLLEQLKERFKDKKHLDKFSSYHVKTAFFHVCTQNPQDSQWDRKDLGLCFANCVTYFLQCLRTEKLENYFIPEFNLFSSNLIDKRSKEFLTKQIEYERNNEFPVFDEF
